Reference: article PMC4861493, “Functional Evolution in Orthologous Cell-encoded RNA-dependent RNA Polymerases*” (The Journal of Biological Chemistry, 2016)

Biological target: the molecule itself
Experiment: crystal structure; QDE-1^Tte catalytic fragment apoenzyme, crystals grown at 30 °C in 100 mM Tris-HCl pH 8.0, 75 mM NaCl, 10% PEG 10,000, 5 mM MgCl2, 6 mM spermine; 3.19 Å; two non-crystallographic dimers (A/B, C/D) in the asymmetric unit

B1: QDE-1^Tte catalytic fragment (RNA-dependent RNA polymerase QDE-1 of Thielavia terrestris) (enzyme)
chain: EVYARLQNIWPKFPRWLHAAPLALAWELTRICLHCKVDLEDPTLRYDPSWATSDMAALWRSLTQLDVFRGKSFPERPSAEAFAAALTGNFESRGNTVVLSASLEFNPSKTGPLFLLDMKPLRFDEGCRLTRRFGPDRFLEVLVPSPTALNAPSILKDGGAAQVIRWLTEKPHSLVGRQWQAFYTKDAGYRKPARELRLGPDAKATFKERVHFFAERGHDFRPAPLRTRAQLPPESPSRRRTEIRVSEMLDWLLQLEQNEYQPHLKLFSRIQLGLSKTFPTVTFEPNQIRHRTDDILSPAGKIMNDGIGRMSRSVARKIRDALGLSDIPSAIQGRMGSAKGMWLMDVADAGDDDWIETYPSQRKWKCDDADALHRTLEIRSVSTELKPAALNLQFLPVLEDRAKDKARMRRAIAARLMNDLKKQFDSQKAAVERPLQFRQWVNECTNSRSERVRHGQVPFLGGLPENKGEVLSFLLNSGFDRRQKYIQDLAFDLQKQRCEVLRTKLNIHVGRSAYMFMVVDFWGVLEENEVHVGFSSKFRDDVDDTTYMLLTDCDVLVARSPAHFPSDIQKVRAVFKPQLHALKDVIVFPAKGDIPLADKLSGGDYDGDMAWVCWDPDIVENFTNADMPKEPDLSAYLGKDKTTFGELVRDTGRTGAAARHEAVYDMINKSFQFAMQPNYLGICTNYKERVCYHNNSVSDGVALLLSTLVGKLVDQSKQGILFDAASWDRLRRERLGGRMSVEDPAYKGDVWAGAGEPRHIVDYLKFAVAKPTIDRELEELHKVMQASRRAGPDDDAAAHSWDPDLAVYFENFKALTAESRSLRAVLEALQNALGAVEHEWKVLMSKGSSSSLTYPEKVRQLHAKWCAIEPRAVGRAGSNRLDAKTAALLEQPFLADRGGAGTSYWALLRASTAFKAYYKTNPKFVWQMAGAQLAFIKAQMSSPGGGGGGGSDGMPLLVTPLMYAGLAPDGRFVKQYLARLECDGSQYPDDDLEGDGEDGGGGGGRGDDVD
notes: QDE-1 ortholog of Thielavia terrestris, catalytic fragment; synthetic ORF from Genscript cloned into pFB-LIC-Bse; the monomer used for crystallization has 1,034 residues including the His tag and the tobacco etch virus protease cleavage site; numbers count on: the catalytic fragment; A TEV protease cleavage site lies between the His tag and the fragment and was not cut in the crystallized …
stoichiometry N: 2
